Assay results: a protein production outcome set (Wang et al. 2014)

Experiment: label from the status in PepcDB records
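Further: failed if final PepcDB status was selected cloned or expressed and not failed if soluble or beyond.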

**Q.** For “MEEGGDFDNYYGADNQSECEYTDWKSSGALIPAIYMLVFLLGTTGNGLVLWTVFRSSREKRRSADIFIASLAVADLTFVVTLPLWATYTYRDYDWPFGTFFCKLSSYLIFVNMYASVFCLTGLSFDRYLAIVRPVANARLRLRVSGAVATAVLWVLAALLAMPVMVLRTTGDLENTTKVQCYMDYSMVATVSSEWAWEVGLGVSSTTVGFVVPFTIMLTCYFFIAQTIAGHFRKERIEGLRKRRRLLSIIVVLVVTFALCWMPYHLVKTLYMLGSLLHWPCDFDLFLMNIFPYCTCISYVNSCLNPFLYAFFDPRFRQACTSMLCCGQSRCAGTSHSSSGEKSASYSSGHSQGPGPNMGKGGEQMHEKSIPYSQETLVVD”, which protein production is on record?
**A.** not failed

**Q.** For “MEEINKYIQNSSETGGEIYNLIEELFPICRSITGNGVRKTMDIIRKHIPLEIHEVKSGTKVFDWTVPKEWNIKDAYVRNSKGEKVIDFKENNLHVMSYSVPVHKTMTLDELKPYLHTIPGNKDRIPYLTSYYKENWGFSLTQNKFDELCDDDYEVVIDSSLEDGSLTYGEYYIRGELEEEILLTTYTCHPSMCNDNLSGVALITFIAKALSKLKTKYSYRFLFAPETIGSITWLSRNEDKLKNIKMGLVATCVGDAGIKNYKRTKFGDAEIDKIVEKVLMHCGSEYYVADFFPWGSDERQFSSPGINLSVGSLMRSCYGFDGYHTSADNLCYMNKDGLADSYKTYLEVIYTIENNRTYLNLNPKCEPQLGKRGIYRMIGGGSDYPFDEFAMFWVLNMSDGKNSLLDIAYKSGMEFRRIKYAADALYRVELLKLV”, which protein production is on record?
**A.** not failed

**Q.** For “MEEITEGVNNMNLAVDTQKKNRIQVSNTKKPLFFYVNLAKRYMQQYTDVELSALGMAIATVVTVAEILKNNGFAVEKKIMTSTVDIKDDSRGRPVQKAKIEITLAKSEKFDELMAAANEEKEAAEAQEQN”, which protein production is on record?
**A.** failed

**Q.** With “MEEKKIVELEKQVEDYRQFGFVLLSLSIFLFIGLVLPPSYAPQVAAEWLIAGIGGALTFAWLFNRKVVQCQQKLFEEEDQQ” as the sequence, how does the protein production read?
**A.** failed

**Q.** With “MEEKKSSGMFAVFAALGANVLVAISKFIGFGLSGSAAMLNESIHSVVDCGNQILLLFGDRRSRQASTNLHQFGEARAKYFFSMIVATFLFFGGGVIGVMEAYDKLVHPAHSVENAGIVIGILLIGMAIEGSSLRVAFKEISELNTEKLPIFKFLHESRHSEILVIFAEDLCAIIGLLLALLGTVLTMVTGNPIFDAISGLLIGFLLMAAAIFLTREFYSLIVGERVTDSDLEKILTAFDRPEVERVINVKTVHLGPTEILIAAKIDLVSKLVLEDYEIINQIEAEIRKKISDKKCYIYIEIDEFVQGYVQSSDL” as the sequence, how does the protein production read?
**A.** failed

**Q.** For “MEEKNGSSEVEIGEKDETKKQSKDLEFLSCMMQPKTADSDPHYIGIRRILLHRKADSGVISRRYDWRCNGKGYVAYRNFISKPRKWENLRTPSLLSSPGNSGRWLPSPSPLSHQFEAESFTSSRDLRSVNQVSSRRASFSSSLSDGDNSYRRGGVEHAYSFVGMHCIFDQCKSSVTVLKFGHMSSDILAYGASDGSLTVCSLLEEPSVLKQLTGHSKDVTDFDFSSNNQYIASSSLDKTIRVWELSRGVCIRVIYGISPQYCIRFHPVNNNFLSAGNANKELTVFNFSTGRIIKKLLFEDEVTSMDHDHTGQIIFCGDGQGTVYSVSMDSHTGSLSRSHRHRTNHKSPVTTVKYRSFSLLASGPVLLTCTQDGNLSFFSVALQIKGYLTLRCSLKLAPRIHRIQASFCPLLSLEKGEYIVAGSEDSNVYFYDLTKPKHTCVNKLQGHRFPVMCVAWNHGENLLASSDFYGVVIVWKRAKTSS”, which protein production is on record?
**A.** failed

**Q.** For “MEEKQPQKTKEPSKEDEPQQKEMPTHLSLGAESKAEAKTPVLVETQTVDNANEKSEKPPENQKKLSDKDTVATKIKAWWRGTLVRRALLHAALSACIIQCWWRLILSKILKKRRQAALEAFSRKEWAAVTLQSQARMWRIRRRYCQVLNAVRIIQAYWRCRSCASRGFIKGQYRVTANQLHLQLEILLDSGPCIVTECIPFSIKE”, which protein production is on record?
**A.** failed

**Q.** Which protein production does the source give for “MEELFCIGCGIQIQTEDKEKAGFTPAAALKKGMETGELYCQRCFRLRHYNEITDVHITDDEFLRLLHEVGDSDALVVNVIDIFDFNGSIIPGLSRFISGNDVLLVGNKKDILPKSVKDGKVTQWLTERAHEEGLRPLDVMLTSAQNKYAIKDLIGRINELRNGRDVYVVGVTNVGKSTLINAIIQEITGNKDVITTSRFPGTTLDKIEIPLDDGTFIFDTPGIIHRHQMAHYLSPKELKIVSPKKEIKPKTYQLNPEQTLFLGGLARFDFINGERQGFTAFFDNQLELHRTKLAGADAFYDKHVGTLLTPPDKKELTAFPKLVRHEFTIDQKMDIVFSGLGWIRVNGQKDSKAIVAAWAPEGVAVIVRKAIILEHHHHHH” here?
**A.** not failed

**Q.** For “MEELLDILREFRDSRGWLKYHTPKNLAVSISIEVAELLEIFQWTRSSDEEFEVLERRKGEVEEEIADVLIYLLFLCDVAEINPIEAVKRKMEKNERKYPKNRVHEF”, which protein production is on record?
**A.** not failed

**Q.** With “MEEPEFQAYVGPRPFEQEDKFIFFGRDREARDLLSLVIAHNLVLVYAQSGAGKTSLINAGLIPLLKENRFEVFPVARVKGTPLRNIKTDEISNIYVLNTLTSWAEDEYDVERLTKMKLVDFLNEQERLQDEDGIPLPRAVIFDQFEEIFSLYQDRWKDREGFFEQISAALETDPLLRVVFVIREDFIAQLDPYVELLPERLRTRFHIERLRREAALLAIKEPLRDTGRSFAEGVAEKLVDDLLKIRVETTPGETTEVTGEFIEAVQLQVVCQNLWRELPPDVKQITFHHLKTYGNVEQELYRFYEEAIRTAAATAHIDEESLRRLFGEVLITTMGTRGMVYRAQESTGGIPNTAIDVLESMHLIRAEWRAGARWYELTHDGFIKPILSSNRVFNDELAEKERAEKERIEKERIEKEWAEKEWAEKERLEKERAEKERLEKELRAEKELAESKQLFYKRLAAISFLAILLALVAVFEWHQAKENAEEARASDLNLNSALLQGDPRNLDKSVLLAIESLKIHITSTADHLIRQGLLSMPHRVVILKHYSDVNNVVFSPDGKYVATASNDNTSRLWDVSTGKQIFVLNHTDPVRNVVFSPDGKYVATASADKTAGVWNTTTGEGISVLNHTGRVNNVVFSPDGKYIATASDDNTSRLWDTATGKQIFVLNQTDPVRNVVFSPDGKYIATASADNTSRLWDTTTGKQIFDMKHDGPVNIVVFSPDGKYVATASADKKARLWNATTGKKIFDMKHDSGINTVVFSPDGKYIVTASDDKTAGVWNTTTGKKIFDMKHDGSVNTVVFSPDGKYIATASADNTSRLWDTATGEKIFFLNHYGWVNTVVFSPDGKYVATASADKTAHLWDVSTGKQISYLRHDSGVNNVVFGPDGKYVVTASADKTADVWNTTTGEKIFVLNHTGRVNNAVFSPDGKYIATASADNTSRLWDTTTGKQIFVLNQTDPVRNVVFSPDRKYIATASDDNTSRLWDTATGKQILVLNHDGPVNTVVFSSDGKYIATASDDNTSRLWDTATGEEIFVLNHTDRVNNVVFSPDGKYIATAGDDNTSRLWGTATGEKIFDMKHDGPVNNVVFSPDGKYVATAGYDNTACLWDTATGEKIFVLNHAGRVNTVVFSPDGKYIATASADKARLWNATTGKQISYLRHDSGVNNVVFSPDGKYIATASVDKTARLWTAKLWISDTEDLIDEANNRLTRNLKPEEWKEYMGDKPYHKRFPNLP” as the sequence, how does the protein production read?
**A.** failed

**Q.** For “MEERNEQVVEEVKEEVKEAQVEEAVTSEDSEESVEEKSEAALLQEKVDELQAKLTETEGRMLRLQADFENYKRRVQMDKQAAEKYRAQSLVSDILPALDNFERAMQVEANDEQMKSLLQGMEMVYRQLLEAMTKEGVEAIEAVGKQFDPHEHQAVMQVEDSEFESNAVVEEFQKGYKLKDRVIRPSMVKVNQ”, which protein production is on record?
**A.** failed

**Q.** For “MEESTVQAPSKRRCSVYEVDGFRFRRKKKRTTESSFVEPIQKEVSNSDSCGHVNDDLNNEEKENKLNVATVPIKSRETVSLAKQEEKTKKLYCESISKDQSEEQRLKALCEAVWTEIYKEAIEEKLPEKGTSLRVLEDVRVAFLDQLTWYLDNPEQRSKTVSEISRPNPINLELEVKIKSLEHDLNCYCNELLGWSNAKSILEEPAKDNKSNETAFSIEERAKKIAVSLSSPYQPQLTRLIKEATVCLDINFTELLEICRIVLTFKNQTAERIKVSYKQELFSNHYQHENS”, which protein production is on record?
**A.** failed

**Q.** With “MEFILEPWHWFVLGILLMLSELVITAFAALWFGIAAIMVSVLLWLFPMMGITTQVIMWIILSVLCTLLWFKFIKPLSIDKTKAGLSREATIGQIGMVIRVGLSHEQIVVRFALPVLGADEWNCRSLAPVEVGDRVCVVDIMGNDLVVQPHIPINNK” as the sequence, how does the protein production read?
**A.** failed

**Q.** Which protein production does the source give for “MEFPKMLTRKIKLWDINAHITCRLCSGYLIDATTVTECLHTFCRSCLVKYLEENNTCPTCRIVIHQSHPLQYIGHDRTMQDIVYKLVPGLQEAEMRKQREFYHKLGMEVPGDIKGETCSAKQHLDSHRNGETKADDSSNKEAAEEKPEEDNDYHRSDEQVSICLECNSSKLRGLKRKWIRCSAQATVLHLKKFIAKKLNLSSFNELDILCNEEILGKDHTLKFVVVTRWRFKKAPLLLHYRPKMDLL” here?
**A.** failed

**Q.** For “MEFWESSFIEKQTMWGFEPTESAILTKDFFLEKNVKNILVPGIGYGRNAKVFIDNGINVTGIEISKTAIDLARENGLEDVSMYHGSVNEMPFDNKLYDGIFSHALLHLLNEQEREKFIEDCYNQLKPGGYMVFTTVSKKAPMYGKGKQLDKDYYEIMDGVKMFFYDSESIKKDFNQYRLVQVSEIDEPNKNMANKPSINFLMIKCKKER”, which protein production is on record?
**A.** failed

**Q.** For “MEGFHMVSDMCPQITGWRIYVFVVRVFKNVISPNVFELGLILADYAGSNSRIEATVDRRLAPFYEDRFVENEWKTITSFLVRKATDSVRATKHEYGILFMDRTVVVEAPPRSPPVPDFDFTPFDYILEKSAYKNVLVDVVGALVDVGGLTTDYYGLKMSFKIKDRYNEVLECEARNKQAEYLDGYFKSLGKGNFVVALSFWRLTELSNPKLASHGAISKVVANPDIPEVADIAMVVF”, which protein production is on record?
**A.** failed

**Q.** For “MEGIMNPYTALPTPQQLLAIEQSVYSSDPFRQGLTPPQMPGDHMHPYGAEPLFHDLDSDDTSLSNLGDCFLATSEAGPLQSRVGNPIDHLYSMQNSYFTS”, which protein production is on record?
**A.** not failed

**Q.** For “MEGITYMNLGTNDKLPKLNTHYSSLSKRLMASFFDNVIISALSYLLSIIIFIIMTIFSFRYLDEFINHIYLIYFSLHFLVAFFYYITMESSSFQGTLGKLIADIKVVKLNGDKVSIFQAFCRFFIANILLYPAYFFYALVLYNVSNQIIINHSCNPYKINSFYFYGLISSSLIYLIYKLVMLITILISNKKQGIHDILIKTLVIIR”, which protein production is on record?
**A.** failed

**Q.** Which protein production does the source give for “MEGKGSFSENLVKRLQLVKANRSHLAPLIDLLRSKVSKSVKRNKHFFRDYADQIYIVSSGFKEFILPIVTEFGIKEEHVMANTFTFDNDGNIIGCDANNPLSQDKGKIKLMEKLGLTGDVHVIGDGYTDYEIRGAGLASKFYAFTENVSRAAVTAKADSIAPSFDEILFQEKL” here?
**A.** failed

**Q.** With “MEGNFIVARFDKNTSFFEDLEEVCNKHGVKAGTVVWAIGMLKDFEVGYWNGQDYEKETFRERLEIVSLHGTIAENDPKYHIHASGARSNHMIVGGHLFSATVDPLIEIQIMKIEGPKMTRVQDPSDKLFKLKIE” as the sequence, how does the protein production read?
**A.** failed

**Q.** With “MEGSQQTITSKQLVRMLKDASRGSKGKGSGEMKFCFLIGAGASISSGIPSGAKLAWDWLQQIKEDCDGEDFEDWKIEIKMPDQHIEERVGEFYPEIYEKRFGHAPETGYDYIRGLMEGREPSLGYLILANIMVREKHNVVITTNFDNLLEDAIRTYTKEKPFIAGHEALADYVPKRSDRPIILKLHRDLFLQPFSDQLNTDILQAAWESILGKFLSDYHLIVLGYGGNDGSLMNYLLKLKNRKPIYWCVRNTDKATSKSLWNTLSPKAKRLLKNDGYLVPIDDFDRFMYDCYAALGYKFLEGIEKIEKPKSIHEILKPNYARIESIQTQLRQLSQTEEELSKESFQSIKSFLPDSWMWILKANQEKDIDKKDKIYREGIAKYPQDANLLGDYADFLCDICHDYDRAEAYYKRALEADPNHANTLGNYALFLKDVRHDYDQAEAYYKRALAADPNHANNLGNYANFLYNIRCDYDQAETYYKKALEADPNHANTLGNYANFLCDIRHDYDQAEGYYKKALEADPKNAITLGNYALFLNDIRHAYDQAEAYYKRALEVDPKSANKLGNYAHFLITCRGDFKRADSLIQQAFENADNDEETKPLQAKLWFYRYAHYYEEWGAEAEKELAALLNVGAKSIGWNLAPDIELARKNKHPHIEQVEAFAKALTEKAQ” as the sequence, how does the protein production read?
**A.** failed
